Measured values: paper PMC6454087

Target: mouse rec1c sNASP variant protein (V281I, L282F) (mouse)
Experiment: BLI; Octet K2, 30 C; sNASP WT or variant immobilised on aminopropylsilane (APS) biosensors, histones in assay buffer at various concentrations (62.5 to 1,000 nM shown for H4), association 240 s; n = 4

- Kd: 0.412 µM
- kon: 9590 M⁻¹ s⁻¹
B1: mouse histone H1a (natural protein)
chain: MSETAPVAQAASTATEKPAAAKKTKKPAKAAAPRKKPAGPSVSELIVQAVSSSKERSGVSLAALKKSLAAAGYDVEKNNSRIKLGLKSLVNKGTLVQTKGTGAAGSFKLNKKAESKAITTKVSVKAKASGAAKKPKKTAGAAAKKTVKTPKKPKKPAVSKKTSKSPKKPKVVKAKKVAKSPAKAKAVKPKASKAKVTKPKTPAKPKKAAPKKK
